# Measured values: patent publication US20200223889A1 (Novo Nordisk, published 2020)
# Positions of bridges follow the written chain, without caps; N, C: chain ends. Non-standard residues stand in square brackets, D forms with d. Cit = NC(=O)NCCC[C@H](N)C(=O)O; Api = NC1(C(=O)O)CCNCC1; Aib = CC(C)(N)C(=O)O
# B1: Chem. 49 (peptide)
# peptide: cyclo(CH[dF]RWCH[dF]RW)
# modifications: disulfide 1-6
# SMILES: N=C(N)NCCC[C@@H]1NC(=O)[C@@H](Cc2ccccc2)NC(=O)[C@H](Cc2c[nH]cn2)NC(=O)[C@@H]2CSSC[C@H](NC(=O)[C@H](Cc3c[nH]c4ccccc34)NC1=O)C(=O)N[C@@H](Cc1c[nH]cn1)C(=O)N[C@H](Cc1ccccc1)C(=O)N[C@@H](CCCNC(=N)N)C(=O)N[C@@H](Cc1c[nH]c3ccccc13)C(=O)N2
# notes: also called c[c[Cys-His-D-Phe-Arg-Trp-Cys]-His-D-Phe-Arg-Trp]
# B2: Chem. 47 (peptide)
# peptide: cyclo(C[Api]H[dF]RWC[Api]H[dF]RW)
# modifications: disulfide 1-7
# SMILES: N=C(N)NCCC[C@@H]1NC(=O)[C@@H](Cc2ccccc2)NC(=O)[C@H](Cc2c[nH]cn2)NC(=O)C2(CCNCC2)NC(=O)[C@@H]2CSSC[C@H](NC(=O)[C@H](Cc3c[nH]c4ccccc34)NC1=O)C(=O)NC1(CCNCC1)C(=O)N[C@@H](Cc1c[nH]cn1)C(=O)N[C@H](Cc1ccccc1)C(=O)N[C@@H](CCCNC(=N)N)C(=O)N[C@@H](Cc1c[nH]c3ccccc13)C(=O)N2
# notes: also called c[c[Cys-ACP-His-D-Phe-Arg-Trp-Cys]-ACP-His-D-Phe-Arg-Trp]
# B3: Chem. 39 (peptide)
# peptide: cyclo(C[Aib]P[dF]RWC[Aib]P[dF]RW)
# modifications: disulfide 1-7
# SMILES: CC1(C)NC(=O)[C@@H]2CSSC[C@H](NC(=O)[C@H](Cc3c[nH]c4ccccc34)NC(=O)[C@H](CCCNC(=N)N)NC(=O)[C@@H](Cc3ccccc3)NC(=O)[C@@H]3CCCN3C1=O)C(=O)NC(C)(C)C(=O)N1CCC[C@H]1C(=O)N[C@H](Cc1ccccc1)C(=O)N[C@@H](CCCNC(=N)N)C(=O)N[C@@H](Cc1c[nH]c3ccccc13)C(=O)N2
# notes: also called c[c[Cys-Aib-Pro-D-Phe-Arg-Trp-Cys]-Aib-Pro-D-Phe-Arg-Trp]
# B4: Chem. 42 (peptide)
# peptide: CAHFXWCAHFXW
# modifications: D-Phe 4, 10; AGP 5, 11; disulphide Cys1-Cys7; head-to-tail amide Cys1-Trp12
# notes: also called c[c[Cys-Ala-His-D-Phe-AGP-Trp-Cys]-Ala-His-D-Phe-AGP-Trp]
# B5: Chem. 48 (peptide)
# peptide: cyclo(CAH[dF][Cit]WCAKKKW)
# modifications: disulfide 1-7
# SMILES: C[C@@H]1NC(=O)[C@@H]2CSSC[C@H](NC(=O)[C@H](Cc3c[nH]c4ccccc34)NC(=O)[C@H](CCCNC(N)=O)NC(=O)[C@@H](Cc3ccccc3)NC(=O)[C@H](Cc3c[nH]cn3)NC1=O)C(=O)N[C@@H](C)C(=O)N[C@@H](CCCCN)C(=O)N[C@@H](CCCCN)C(=O)N[C@@H](CCCCN)C(=O)N[C@@H](Cc1c[nH]c3ccccc13)C(=O)N2
# notes: also called c[c[Cys-Ala-His-D-Phe-Cit-Trp-Cys]-Ala-Lys-Lys-Lys-Trp]
# B6: Chem. 45 (peptide)
# peptide: cyclo(CAH[dF][Cit]WCAEEEW)
# modifications: disulfide 1-7
# SMILES: C[C@@H]1NC(=O)[C@@H]2CSSC[C@H](NC(=O)[C@H](Cc3c[nH]c4ccccc34)NC(=O)[C@H](CCCNC(N)=O)NC(=O)[C@@H](Cc3ccccc3)NC(=O)[C@H](Cc3c[nH]cn3)NC1=O)C(=O)N[C@@H](C)C(=O)N[C@@H](CCC(=O)O)C(=O)N[C@@H](CCC(=O)O)C(=O)N[C@@H](CCC(=O)O)C(=O)N[C@@H](Cc1c[nH]c3ccccc13)C(=O)N2
# notes: also called c[c[Cys-Ala-His-D-Phe-Cit-Trp-Cys]-Ala-Glu-Glu-Glu-Trp]
# B7: Chem. 40 (peptide)
# peptide: cyclo(C[Aib]H[dF]KWC[Aib]H[dF]KW)
# modifications: disulfide 1-7
# SMILES: CC1(C)NC(=O)[C@@H]2CSSC[C@H](NC(=O)[C@H](Cc3c[nH]c4ccccc34)NC(=O)[C@H](CCCCN)NC(=O)[C@@H](Cc3ccccc3)NC(=O)[C@H](Cc3c[nH]cn3)NC1=O)C(=O)NC(C)(C)C(=O)N[C@@H](Cc1c[nH]cn1)C(=O)N[C@H](Cc1ccccc1)C(=O)N[C@@H](CCCCN)C(=O)N[C@@H](Cc1c[nH]c3ccccc13)C(=O)N2
# notes: also called c[c[Cys-Aib-His-D-Phe-Lys-Trp-Cys]-Aib-His-D-Phe-Lys-Trp]
# Target: T1, human melanocortin 4 receptor (human, UniProt P32245 1-332)
# T1 sequence (P32245 whole entry): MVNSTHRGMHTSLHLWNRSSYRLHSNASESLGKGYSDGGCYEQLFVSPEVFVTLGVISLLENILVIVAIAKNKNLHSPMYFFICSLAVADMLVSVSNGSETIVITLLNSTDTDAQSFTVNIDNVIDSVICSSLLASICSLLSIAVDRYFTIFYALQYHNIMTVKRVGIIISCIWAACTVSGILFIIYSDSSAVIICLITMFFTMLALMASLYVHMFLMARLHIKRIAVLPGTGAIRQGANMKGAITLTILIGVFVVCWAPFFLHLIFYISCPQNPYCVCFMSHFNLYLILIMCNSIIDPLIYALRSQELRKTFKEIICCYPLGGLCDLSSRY
# Test: cell-based or functional assay
row,Binder,MC4R cAMP EC50
1,B1,1.28 nM
2,B2,0.12 nM
3,B3,1.54 nM
4,B4,> 1000 nM
5,B5,0.06 nM
6,B6,45.7 nM
7,B7,0.29 nM

# Target: human melanocortin 1 receptor (human, UniProt Q01726 1-317)
# Sequence (Q01726 whole entry): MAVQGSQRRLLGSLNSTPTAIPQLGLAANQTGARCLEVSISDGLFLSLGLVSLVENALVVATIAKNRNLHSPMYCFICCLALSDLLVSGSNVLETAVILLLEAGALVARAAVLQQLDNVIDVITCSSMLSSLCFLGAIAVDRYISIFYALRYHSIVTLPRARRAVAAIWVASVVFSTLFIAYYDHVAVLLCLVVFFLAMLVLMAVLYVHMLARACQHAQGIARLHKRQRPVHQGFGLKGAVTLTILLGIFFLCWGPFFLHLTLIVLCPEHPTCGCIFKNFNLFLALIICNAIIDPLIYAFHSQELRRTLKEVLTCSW
# Test: cell-based or functional assay
row,Binder,MC1R cAMP EC50
1,B1,> 5.5 nM
2,B2,2.79 nM
3,B3,56.4 nM
4,B4,> 100 nM
5,B5,9.14 nM
6,B6,> 100 nM
7,B7,11.1 nM

# Target: T1, human melanocortin 4 receptor
# Test: competition with 125-NDP-α-MSH, BHK human MC4R membranes
# Summary of the method: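 Competition binding used membranes from BHK cells stably expressing human MC4R with ¹²⁵I-NDP-α-MSH (apx. […] final), compound at 1 μM–0.001 nM. Incubation was 2 h at 25 °C in HEPES pH 7.0 buffer with CaCl₂, MgSO₄, EGTA, Tween 20 and 0.1% HSA or ovalbumin. Filter-bound radioactivity was fitted by non-linear regression.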
row,Binder,Ki
1,B1,3.92 nM
2,B2,0.72 nM
3,B3,1.8 nM
4,B4,10000 nM
5,B5,0.15 nM
6,B6,1000 nM
7,B7,0.31 nM
